Measured values as given in patent US20170058008A1 (SYNGENTA PARTICIPATIONS, published 2017).

What was measured:
[1] = molecular target: ATP synthase α from S. frugiperda (native) (S. frugiperda); assay: cell-based or functional assay
[2] = molecular target: ATP synthase β from S. frugiperda (native) (S. frugiperda); assay: cell-based or functional assay
[3] = molecular target: Hsc70 from S. frugiperda (native) (S. frugiperda); assay: cell-based or functional assay
[4] = molecular target: ATP synthase α + β of Sf9 cells (native, both silenced together) (S. frugiperda); assay: cell-based or functional assay
[5] = molecular target: Hsc70 and serpin, co-expressed in Drosophila S2 cells (S. frugiperda; M. sexta) (UniProt Q9U639); assay: cell-based or functional assay
[6] = molecular target: Hsc70, cadherin from M. sexta, and aminopeptidase-N (APN) from M. sexta, co-expressed in Drosophila S2 cells (S. frugiperda; M. sexta); assay: cell-based or functional assay
[7] = molecular target: cell surface displayed serpin from M. sexta (yeast display, pYD1) (M. sexta); assay: biopanning of a yeast surface-displayed M. sexta cDNA library with biotinylated trypsinized Vip3A; none out of twenty clones in the control without bVip3A/T
V5-tagged Cry1Ab = molecular target: T1, V5-tagged Cry1Ab (UniProt P0A370 29-607, limits assumed); assay: fluorescent confocal microscopy, co-localization on transfected Sf9 cells
T1 construct: not shown: V5 tag

biotin labeled Cry1Ab = biotin labeled Cry1Ab (UniProt P0A370 29-607, biotin labeled (sites not given)); assay: Far-Western blot, V5-enriched protein on PVDF probed with biotin labeled Cry1Ab

## Vip3A
[1]
  Mortality (%) Day 2, FAW larvae pretreated with dsRNA for the target, Vip3A at 100 ng/cm^2: 12.5%
  Mortality (%) Day 6, FAW larvae pretreated with dsRNA for the target, Vip3A at 100 ng/cm^2: 12.5%
  Mortality (%) Day 10, FAW larvae pretreated with dsRNA for the target, Vip3A at 100 ng/cm^2: 37.5%
[2]
  Mortality (%) Day 2, FAW larvae pretreated with dsRNA for the target, Vip3A at 100 ng/cm^2: 0%
  Mortality (%) Day 6, FAW larvae pretreated with dsRNA for the target, Vip3A at 100 ng/cm^2: 15.4%
  Mortality (%) Day 10, FAW larvae pretreated with dsRNA for the target, Vip3A at 100 ng/cm^2: 53.9%
[3]
  Mortality (%) Day 2, FAW larvae pretreated with dsRNA for the target, Vip3A at 100 ng/cm^2: 0%
  Mortality (%) Day 6, FAW larvae pretreated with dsRNA for the target, Vip3A at 100 ng/cm^2: 0%
  Mortality (%) Day 10, FAW larvae pretreated with dsRNA for the target, Vip3A at 100 ng/cm^2: 6.25%

## trypsinized Vip3A
[4]
  percent reduction of cell viability, Sf9 cells with the target silenced by dsRNA, 200 nM trypsinized Vip3A (GFP dsRNA control 30.055): 0.986%
[1]
  percent reduction of cell viability, Sf9 cells with the target silenced by dsRNA, 200 nM trypsinized Vip3A (GFP dsRNA control 30.055): 0.99%
[2]
  percent reduction of cell viability, Sf9 cells with the target silenced by dsRNA, 200 nM trypsinized Vip3A (GFP dsRNA control 30.055): 22.7%
[5]
  % of dead cells, co-transfected S2 cells, 0 nM Vip3A: 1.5%
  % of dead cells, co-transfected S2 cells, 25 nM Vip3A: 6%
  % of dead cells, co-transfected S2 cells, 50 nM Vip3A: 17%
  % of dead cells, co-transfected S2 cells, 100 nM Vip3A: 34%
  % of dead cells, co-transfected S2 cells, 200 nM Vip3A: 64%
  % of dead cells, co-transfected S2 cells, 400 nM Vip3A: 81%
  % of dead cells, co-transfected S2 cells, 800 nM Vip3A: 96%
[3]
  percent reduction of cell viability, Sf9 cells with the target silenced by dsRNA, 200 nM trypsinized Vip3A (GFP dsRNA control 30.055): 17.1%
[6]
  % of dead cells, co-transfected S2 cells, 0 nM Vip3A: 4%
  % of dead cells, co-transfected S2 cells, 25 nM Vip3A: 3%
  % of dead cells, co-transfected S2 cells, 50 nM Vip3A: 7%
  % of dead cells, co-transfected S2 cells, 100 nM Vip3A: 6%
  % of dead cells, co-transfected S2 cells, 200 nM Vip3A: 9%
  % of dead cells, co-transfected S2 cells, 400 nM Vip3A: 10%
  % of dead cells, co-transfected S2 cells, 800 nM Vip3A: 8%
[7]
  share of sequenced clones carrying the serpin gene after seven rounds of selection: 45%

B1: ATP synthase α from S. frugiperda, V5/6xHis-tagged (pIZT/V5-His) (other, not shown: small tags and cut ends)
chain: MSLISARIAGSVARRLPNAASQVSKVAGVAAPAVAVASRNFHVSPTQKAAEISTILEERILGAAPKADLEETGRVLSIGDGIARVYGLKNIQAEEMVEFSSGLKGMALNLEPDNVGVVVFGNDKLIKEGDIVKRTGAIVDVPVGEQLLGRVVDALGNAIDGKGPIDTKSRMRVGIKAPGIIPRVSVREPMQTGIKAVDSLVPIGRGQRELIIGDRQTGKTALAIDTIINQQRFNKGQDEKKKLYCIYVAIGQKRSTVAQIVKRLTDAGAINYTIIVSRTASDAAPLQYLAPYSGCAMGEFFRDNGKHALIIYDDLSKQAVAYRQMSLLLRRPPGREAYPGDVFYLHSRLLERAAKMSDKMGGGSLTALPVIETQAGDVSAYIPTNVISITDGQIFLETELFYKGIRPAINVGLSVSRVGSAAQTKAMKQVAGSMKLELAQYREVAAFAQFGSDLDAATQQLLNRGMRLTELLKQGQYVPMAIEEQVAIIYCGVRGHLDKLDPSKITGFEKEFTQHIKTSHQGLLATIAKDGQITPESDAALKKIVTDFLATFTQSQ
notes: Expressed in Sf9 cells
V5-tagged Cry1Ab
  binding result: no binding (tested: 200 nM)
Biotin labeled Cry1Ab
  binding result: no binding
